Positions count from the first letter of the chain named. Names and notes keep the numbering of the source.
Legend:
HA-tagged ASK1-WT [1] = target: T1, HA-tagged ASK1-WT (UniProt Q99683 1-1374); assay: cell-based or functional assay
T1 sequence (looked up): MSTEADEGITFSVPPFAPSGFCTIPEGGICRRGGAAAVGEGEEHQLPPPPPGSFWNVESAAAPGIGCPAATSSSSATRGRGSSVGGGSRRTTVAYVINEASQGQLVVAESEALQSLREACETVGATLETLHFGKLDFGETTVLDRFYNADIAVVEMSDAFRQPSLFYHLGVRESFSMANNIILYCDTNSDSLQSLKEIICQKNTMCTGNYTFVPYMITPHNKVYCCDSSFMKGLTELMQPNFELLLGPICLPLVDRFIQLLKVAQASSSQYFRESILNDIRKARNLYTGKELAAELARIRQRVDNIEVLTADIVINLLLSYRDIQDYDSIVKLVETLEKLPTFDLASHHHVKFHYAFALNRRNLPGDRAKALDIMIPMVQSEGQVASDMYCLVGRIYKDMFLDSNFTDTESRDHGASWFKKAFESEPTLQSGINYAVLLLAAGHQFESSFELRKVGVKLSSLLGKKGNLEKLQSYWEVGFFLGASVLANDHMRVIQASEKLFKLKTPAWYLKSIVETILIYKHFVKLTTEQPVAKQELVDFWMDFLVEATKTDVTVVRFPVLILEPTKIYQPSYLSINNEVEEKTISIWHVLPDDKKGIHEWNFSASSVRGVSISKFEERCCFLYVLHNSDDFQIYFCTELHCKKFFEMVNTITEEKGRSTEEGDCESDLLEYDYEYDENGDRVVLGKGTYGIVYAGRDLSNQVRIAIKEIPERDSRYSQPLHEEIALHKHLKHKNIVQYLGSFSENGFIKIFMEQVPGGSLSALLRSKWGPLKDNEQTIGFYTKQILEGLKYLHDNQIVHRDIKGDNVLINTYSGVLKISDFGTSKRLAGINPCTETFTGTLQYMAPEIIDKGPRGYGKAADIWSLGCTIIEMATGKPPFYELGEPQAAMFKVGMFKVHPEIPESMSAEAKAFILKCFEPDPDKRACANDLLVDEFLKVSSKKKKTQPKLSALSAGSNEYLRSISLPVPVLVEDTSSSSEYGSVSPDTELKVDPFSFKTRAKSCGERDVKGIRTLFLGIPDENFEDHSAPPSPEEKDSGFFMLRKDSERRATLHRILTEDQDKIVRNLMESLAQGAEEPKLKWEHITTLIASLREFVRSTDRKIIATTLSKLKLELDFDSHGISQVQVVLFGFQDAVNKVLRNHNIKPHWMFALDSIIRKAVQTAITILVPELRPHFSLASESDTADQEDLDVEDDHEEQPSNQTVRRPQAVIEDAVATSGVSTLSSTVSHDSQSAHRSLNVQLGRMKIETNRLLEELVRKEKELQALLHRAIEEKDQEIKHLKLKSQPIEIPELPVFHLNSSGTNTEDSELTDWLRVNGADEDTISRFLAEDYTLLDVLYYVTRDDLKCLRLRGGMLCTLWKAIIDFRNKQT

HA-tagged ASK1-WT [2] = target: T1, HA-tagged ASK1-WT; assay: GST pull-down from BAEC lysate, anti-HA Western blot
HA-tagged ASK1-WT [3] = target: T1, HA-tagged ASK1-WT; assay: co-immunoprecipitation from BAEC (anti-Flag IP, anti-HA blot)

B1: Flag-tagged Trx-WT (enzyme, not shown: small tags and cut ends)
chain: MVKQIESKTAFQEALDAAGDKLVVVDFSATWCGPCKMIKPFFHSLSEKYSNVIFLEVDVDDCQDVASECEVKCMPTFQFFKKGQKVGEFSGANKEKLEATINELV
In the case of B1, the “cell survival in ASK1-induced EC death (GFP co-transfection killing assay)” value (from here on “cell survival in ASK1-induced EC death”) (HA-tagged ASK1-WT [1]) is reported as 92% and the “inhibition of ASK1-induced caspase 3 activity” value (shortened to “inhibition”) (HA-tagged ASK1-WT [1]) is reported as 50%.

B2: Flag-tagged Trx-C32S (enzyme, not shown: small tags and cut ends)
chain: B1 chain with C32S
With B2 the “cell survival in ASK1-induced EC death” value (HA-tagged ASK1-WT [1]) was 80% and the “inhibition” value (HA-tagged ASK1-WT [1]) was 48%.

B3: GST-Trx-CS (enzyme, not shown: a dimerising Fc or GST; large carriers; small tags and cut ends)
chain: B1 chain with C32S, C35S
notes: also called double-mutant of C32S and C35S
B3: no binding (HA-tagged ASK1-WT [2]).

B4: Flag-tagged Trx-C35S (enzyme, not shown: small tags and cut ends)
chain: B1 chain with C35S
In the case of B4, the “cell survival in ASK1-induced EC death” value (HA-tagged ASK1-WT [1]) is reported as 105% and the “inhibition” value (HA-tagged ASK1-WT [1]) is reported as 52%.

B5: Flag-tagged Trx-CS (enzyme)
chain: B1 chain with C32S, C35S
notes: Expressed by transfection in BAEC; not shown: Flag tag of the Flag-vector
B5: no binding (HA-tagged ASK1-WT [3]).

— patent publication US20060148057A1 (published 2006)
